Results on 58 variants are retold here after the FLAb antibody collection (doi:10.7554/elife.23156).

The chains are these.
B1: scFv; the commonest letter at each place (parent)
chain 1: EVKLDETGGGLVQPGRPMKLSCVASGFTFSDYWMNWVRQSPEKGLEWVAQIRNKPYNYETYYSDSVKGRFTISRDDSKSSVYLQMNNLRVEDMGIYYCTGSYYGMDYWGQGTSVTVS
chain 2: DVVMTQTPLSLPVSLGDQASISCRSSQSLVHSNGNTYLRWYLQKPGQSPKVLIYKVSNRFSGVPDRFSGSGSGTDFTLKISRVEAEDLGVYFCSQSTHVPWTFGGGTKLEIK

The variants in the data set “fluorescein” derive from B1. Nature of the data set: Kd (Tite-Seq). The following applies: with fluorescein; format: scFv 4-4-20, heavy + light.
In data set [1] the parent is B1. The data set is described as follows: yeast surface expression (ratio to wild type); higher = more expressed. Particulars: format: scFv 4-4-20, heavy + light.

In the case of chain 1 G100S Y107A, the Kd with fluorescein is ≥ 10 µM. In addition, the yeast surface expression in data set [1] amounted to 0.942.
In the same order, the values of chain 1 G104H D106H are ≥ 10 µM and 0.586.
As for chain 1 G104M Y107H, the Kd in the data set with fluorescein is ≥ 10 µM. In data set [1], the yeast surface expression amounted to 0.555.
Regarding chain 1 G100R Y107N G109K, the Kd with fluorescein was ≥ 10 µM. For the same variant, the yeast surface expression in data set [1] amounted to 0.235.
Regarding chain 1 G104S W108R, the equilibrium dissociation constant (Kd) in the data set with fluorescein was ≥ 10 µM. The yeast surface expression in data set [1] stood at 0.26.
In the same order, the values of chain 1 G104S W108S are ≥ 10 µM and 0.304.
In the same order, the values of chain 1 G104S W108E are ≥ 10 µM and 0.198.
In the case of chain 1 G104T G109D, the Kd with fluorescein was ≥ 10 µM. Also, the yeast surface expression in data set [1] was 0.235.
On the same counts, the results for chain 1 G104T G109L are ≥ 10 µM and 0.241.
On the same counts, the results for chain 1 G104F D106G are ≥ 10 µM and 0.169.
On the same counts, the results for chain 1 G104F D106K are ≥ 10 µM and 0.201.
Regarding chain 1 G104T Y107P, the Kd with fluorescein is ≥ 10 µM. Also, in data set [1], the yeast surface expression amounted to 0.313.
In the same order, the values of chain 1 G104Q D106K are ≥ 10 µM and 0.274.
Take chain 1 G100Y M105S: the Kd with fluorescein is ≥ 10 µM. Further, the yeast surface expression in data set [1] came to 0.377.
On the same counts, the results for chain 1 G100Y M105R are ≥ 10 µM and 0.513.
On the same counts, the results for chain 1 G100V M105S are ≥ 10 µM and 0.855.
On to chain 1 G104A M105T, for which the Kd with fluorescein is ≥ 10 µM. The yeast surface expression in data set [1] was 0.685.
As for chain 1 G104A M105E, in the data set with fluorescein, the dissociation constant (Kd) was ≥ 10 µM. Besides, the yeast surface expression in data set [1] is 0.648.
chain 1 G104A M105P: the Kd with fluorescein is ≥ 10 µM. In addition, the yeast surface expression in data set [1] amounted to 0.375.
On the same counts, the results for chain 1 G100W S101P are ≥ 10 µM and 0.197.
As to chain 1 G100W S101E, in the data set with fluorescein, the Kd is ≥ 10 µM. Further, the yeast surface expression in data set [1] was 0.429.
In the same order, the values of chain 1 G100W S101L are ≥ 10 µM and 0.293.
For the variant chain 1 G100S M105R, in the data set with fluorescein, the Kd worked out at 0.311 µM. Besides, the yeast surface expression in data set [1] stood at 0.929.
In the same order, the values of chain 1 G100S M105I are ≥ 10 µM and 0.943.
In the same order, the values of chain 1 G100S M105W are 5.37 µM and 0.758.
In the same order, the values of chain 1 G104R Y107W are ≥ 10 µM and 0.257.
On to chain 1 G104R Y107R, for which the equilibrium dissociation constant (Kd) with fluorescein was ≥ 10 µM. Besides, the yeast surface expression in data set [1] is 0.263.
Regarding chain 1 G104K Y107P G109N, the equilibrium dissociation constant (Kd) with fluorescein was ≥ 10 µM. Besides, in data set [1], the yeast surface expression was 0.307.
In the same order, the values of chain 1 G100T G109K are ≥ 10 µM and 0.433.
On the same counts, the results for chain 1 G104E Y107A are ≥ 10 µM and 0.736.
Regarding chain 1 G104E G109Y, the Kd in the data set with fluorescein is ≥ 10 µM. Moreover, the yeast surface expression in data set [1] turned out to be 0.384.
chain 1 G104E G109C: in the data set with fluorescein, the dissociation constant Kd was ≥ 10 µM. Moreover, the yeast surface expression in data set [1] stood at 0.21.
chain 1 G100W D106C: the equilibrium dissociation constant (Kd) with fluorescein is ≥ 10 µM. Besides, in data set [1], the yeast surface expression was determined as 0.437.
In the same order, the values of chain 1 G100W D106F are ≥ 10 µM and 0.18.
As for chain 1 G104L M105G Y107F, the Kd with fluorescein is ≥ 10 µM. For the same variant, the yeast surface expression in data set [1] is 0.414.
On the same counts, the results for chain 1 G100Y Y102T are ≥ 10 µM and 0.662.
chain 1 G104T D106C Y107Q: the Kd with fluorescein was ≥ 10 µM. Besides, in data set [1], the yeast surface expression worked out at 0.31.
On the same counts, the results for chain 1 G104H G109H are ≥ 10 µM and 0.765.
On the same counts, the results for chain 1 G104V W108A are ≥ 10 µM and 0.141.
Regarding chain 1 G104I M105S, the dissociation constant (Kd) with fluorescein was ≥ 10 µM. The yeast surface expression in data set [1] came to 0.592.
In the same order, the values of chain 1 G104I Y107D are ≥ 10 µM and 0.2.
For chain 1 G104I Y107N, the dissociation constant (Kd) with fluorescein is ≥ 10 µM. Further, in data set [1], the yeast surface expression turned out to be 0.247.
On the same counts, the results for chain 1 G100R Y107P W108D are ≥ 10 µM and 0.43.
As to chain 1 G104V M105R G109W, in the data set with fluorescein, the dissociation constant (Kd) is ≥ 10 µM. In data set [1], the yeast surface expression was 0.425.
In the same order, the values of chain 1 G104R D106M are ≥ 10 µM and 0.275.
On the same counts, the results for chain 1 G104S Y107S are ≥ 10 µM and 0.437.
On the same counts, the results for chain 1 G104S Y107G are ≥ 10 µM and 0.303.
Take chain 1 G104S Y107K: the Kd with fluorescein is ≥ 10 µM. Besides, the yeast surface expression in data set [1] was 0.796.
On the same counts, the results for chain 1 G104S Y107T are ≥ 10 µM and 0.831.
In the case of chain 1 G100V S101H, the dissociation constant (Kd) with fluorescein is ≥ 10 µM. Moreover, the yeast surface expression in data set [1] is 0.872.
For chain 1 G100V S101I, the Kd with fluorescein was ≥ 10 µM. Besides, the yeast surface expression in data set [1] stood at 0.653.
Turning to chain 1 G100V S101N, the Kd with fluorescein is ≥ 10 µM. Further, in data set [1], the yeast surface expression came out at 0.787.
In the same order, the values of chain 1 G100V S101M are ≥ 10 µM and 0.712.
On the same counts, the results for chain 1 G100W Y102N D106L are ≥ 10 µM and 0.286.
On the same counts, the results for chain 1 G100S S101D are ≥ 10 µM and 0.892.
For chain 1 G100W W108V, in the data set with fluorescein, the Kd is 0.15 µM. Also, in data set [1], the yeast surface expression was found to be 0.251.
In the same order, the values of chain 1 G104Y Y107H are ≥ 10 µM and 0.59.
On the same counts, the results for chain 1 G100S Y103L W108N are ≥ 10 µM and 0.26.

As usually defined, the Kd is the constant that tells how readily two partners part at equilibrium.
